According to patent publication US10047131B2, “Peptides and combination of peptides for use in immunotherapy against ovarian cancer and other cancers” (immatics biotechnologies GmbH, priority 2015, dated 2018):

These substances were tested against HLA-A*02:01 (Homo sapiens, UniProt P04439, D140Y/D185E/D98H/E176V/E277Q/G131W/G231S/I119V/I121R/I166T/I218V/L300P/L318F/N151K/N90K/P208A/P217A/Q86G/Q94H/R138H/R169H/T345S) (assay: MHC binding assay (UV-ligand exchange, ELISA of exchange yield)). Details: binding to HLA-A*02:01, UV-ligand exchange.
Method in brief: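 Peptide–MHC complexes made by UV-ligand exchange, where a UV-cleavable peptide is replaced by the test peptide. Exchange yield measured by ELISA: complexes diluted 100-fold on streptavidin-coated plates, stabilized complexes detected with HRP anti-β2m, TMB read at 450 nm.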

Substance | Peptide exchange (MHC class I binding score, peptide exchange yield)
383 (ALLELENSVTL; listed as Homo sapiens) [compound 383] | “+++” (≥50 = +++)
385 (SLLEQGLVEA; listed as Homo sapiens) [compound 385] | “++” (≥20% = ++)
386 (ILFRYPLTI; listed as Homo sapiens) [compound 386] | “+++” (≥50 = +++)
389 (LLADVTHLL; listed as Homo sapiens) [compound 389] | “++” (≥20% = ++)
390 (ALFMKQIYL; listed as Homo sapiens) [compound 390] | “+++” (≥50 = +++)
392 (ALLHPQGFEV; listed as Homo sapiens) [compound 392] | “++” (≥20% = ++)
393 (GLLDTQTSQVLTA; listed as Homo sapiens) [compound 393] | “++” (≥20% = ++)
394 (LLAVIGGLVYL; listed as Homo sapiens) [compound 394] | “+++” (≥50 = +++)
395 (ALALGGIAVV; listed as Homo sapiens) [compound 395] | “++++” (≥75% = ++++)
396 (ALLPDLPAL; listed as Homo sapiens) [compound 396] | “+++” (≥50 = +++)
397 (YLFGERLLEC; listed as Homo sapiens) [compound 397] | “+++” (≥50 = +++)
400 (SLLTEQDLWTV; listed as Homo sapiens) [compound 400] | “++” (≥20% = ++)
402 (VLFSGALLGL; listed as Homo sapiens) [compound 402] | “++” (≥20% = ++)
405 (ALYDVFLEV; listed as Homo sapiens) [compound 405] | “++” (≥20% = ++)
407 (YLMDLINFL; listed as Homo sapiens) [compound 407] | “+++” (≥50 = +++)
408 (VLDDSIYLV; listed as Homo sapiens) [compound 408] | “++” (≥20% = ++)
409 (LLDAMNYHL; listed as Homo sapiens) [compound 409] | “++” (≥20% = ++)
426 (RLADKSVLV; listed as Homo sapiens) [compound 426] | “+++” (≥50 = +++)
427 (ALLPLSPYL; listed as Homo sapiens) [compound 427] | “+++” (≥50 = +++)
428 (KLGHTDILVGV; listed as Homo sapiens) [compound 428] | “++” (≥20% = ++)
429 (GLVNDLARV; listed as Homo sapiens) [compound 429] | “++” (≥20% = ++)
432 (TLIEESAKV; listed as Homo sapiens) [compound 432] | “++” (≥20% = ++)
434 (KVSNSGITRV; listed as Homo sapiens) [compound 434] | “++” (≥20% = ++)
437 (SMAPGLVIQAV; listed as Homo sapiens) [compound 437] | “+++” (≥50 = +++)
438 (KLLPLAGLYL; listed as Homo sapiens) [compound 438] | “++++” (≥75% = ++++)
440 (ALADGVTMQV; listed as Homo sapiens) [compound 440] | “++” (≥20% = ++)
442 (GLLGGGGVLGV; listed as Homo sapiens) [compound 442] | “+++” (≥50 = +++)
448 (NLLETKLQL; listed as Homo sapiens) [compound 448] | “+++” (≥50 = +++)
450 (FMIDASVHPTL; listed as Homo sapiens) [compound 450] | “+++” (≥50 = +++)

Further lines, results first:

Peptide exchange (MHC class I binding score, peptide exchange yield) | Substance
“++” (≥20% = ++) | 382 (ALQNYIKEA; listed as Homo sapiens) [compound 382]
“+++” (≥50 = +++) | 384 (ILFANPNIFV; listed as Homo sapiens) [compound 384]
“++++” (≥75% = ++++) | 387 (ALFQATAEV; listed as Homo sapiens) [compound 387]
“+++” (≥50 = +++) | 388 (SLTIDGIRYV; listed as Homo sapiens) [compound 388]
“+++” (≥50 = +++) | 391 (YVYPQRLNFV; listed as Homo sapiens) [compound 391]
“++” (≥20% = ++) | 398 (KLLEEDGTIITL; listed as Homo sapiens) [compound 398]
“+++” (≥50 = +++) | 399 (YLFEPLYHV; listed as Homo sapiens) [compound 399]
“+++” (≥50 = +++) | 401 (ILLDDTGLAYI; listed as Homo sapiens) [compound 401]
“++” (≥20% = ++) | 403 (KLYDRILRV; listed as Homo sapiens) [compound 403]
“++” (≥20% = ++) | 412 (YLDDLNEGVYI; listed as Homo sapiens) [compound 412]
“+++” (≥50 = +++) | 430 (HLYSSIEHLTT; listed as Homo sapiens) [compound 430]
“++” (≥20% = ++) | 431 (SLVNVVPKL; listed as Homo sapiens) [compound 431]
“+++” (≥50 = +++) | 433 (AMLNEPWAV; listed as Homo sapiens) [compound 433]
“+++” (≥50 = +++) | 436 (HLAEVSAEV; listed as Homo sapiens) [compound 436]
“+++” (≥50 = +++) | 439 (YLLQEIYGI; listed as Homo sapiens) [compound 439]
“+++” (≥50 = +++) | 441 (ALLENPKMEL; listed as Homo sapiens) [compound 441]
“+++” (≥50 = +++) | 443 (GLWEIENNPTV; listed as Homo sapiens) [compound 443]
“+++” (≥50 = +++) | 444 (GLLRDEALAEV; listed as Homo sapiens) [compound 444]
“+++” (≥50 = +++) | 446 (QLIPALAKV; listed as Homo sapiens) [compound 446]
“++” (≥20% = ++) | 447 (QLVPALAKV; listed as Homo sapiens) [compound 447]
“+++” (≥50 = +++) | 449 (KLAEGLDIQL; listed as Homo sapiens) [compound 449]
